Results published in the RNAGym collection of RNA variant scans (doi:10.7554/elife.80360).

B1: HDV Ribozyme (parent)
chain: GGCCGGCAUGGUCCCAGCCUCCUCGCUGGCGCCGGCUGGGCAACAUUCCGAGGGGACCGUCCCCUCGGUAAUGGCGAAUGGGACCCA

Variants of: B1
Assay: self-cleavage, relative activity (ratio to wild type); higher = more cleavage; co-transcriptional

| Variant | self-cleavage |
| --- | --- |
| C30G A51C | 0.142 |
| G31A G67A | 0.44 |
| C30G G53A | 0.0482 |
| G31C C85G | 0.341 |
| G31A U79A | 0.169 |
| G31A A43U | 0.128 |
| C30U G59A | 0.878 |
| G31C C86G | 0.188 |
| C30G C44A | 0.0875 |
| G31C G35U | 0.158 |
| G31C G35C | 0.0978 |
| G31A G40A | 0.233 |
| G31A G40U | 0.112 |
| C30A U47G | 0.682 |
| C30A U47A | 0.486 |
| C30U A71C | 0.404 |
| C30A U37G | 0 |
| C30U A45G | 0.796 |
| G31A A78G | 0.0978 |
| G31A C49A | 0.353 |
| C30G G80U | 0.0912 |
| C30A G82C | 0.193 |
| G31A C63U | 0.606 |
| C30U A56C | 0.772 |

| Variant | self-cleavage |
| --- | --- |
| C30U C63U | 0.581 |
| C30U C63A | 0.466 |
| G31A C61A | 0.554 |
| C30U U79G | 0.128 |
| C30G G68C | 0.0906 |
| C30U G67A | 0.578 |
| G31A C44U | 0.0898 |
| C30U G40U | 0.114 |
| C30U G40C | 0.0256 |
| G31C A45U | 0.0437 |
| C30G A70G | 0.0739 |
| G31A C86U | 0.69 |
| G31A C86A | 0.669 |
| C30U C85G | 0.0978 |
| G31A C84G | 0.119 |
| G31C A43U | 0.135 |
| G31C A43C | 0 |
| G31C C44G | 0.135 |
| C30A U60G | 0.502 |
| C30G G59U | 0.0744 |
| C30G G59C | 0.108 |
| G31C C36U | 0.0978 |
| G31A U47G | 0.192 |
| C30G U72A | 0.0536 |

| Variant | self-cleavage |
| --- | --- |
| C30G U72C | 0.0594 |
| C30U A70U | 0.782 |
| G31C A87U | 0.328 |
| C30G C41A | 0.0361 |
| C30U G55C | 0.523 |
| G31A U60A | 0.49 |
| G31A U60G | 0.642 |
| G31C G34U | 0.191 |
| C30U C62U | 0.562 |
| C30G C86A | 0.241 |
| C30G C85G | 0.0405 |
| C30G C85U | 0.0302 |
| C30U U47C | 0.401 |
| C30G G39C | 0.131 |
| C30G U37G | 0 |
| C30U C86G | 0.733 |
| C30U C86U | 0.795 |
| C30U C86A | 0.923 |
| G31C C66G | 0.443 |
| G31C C66U | 0.292 |
| G31A G59U | 0.383 |
| G31A G59A | 0.531 |
| C30U A87U | 0.636 |
| C30U A87G | 0.699 |

| Variant | self-cleavage |
| --- | --- |
| C30U C41A | 0.543 |
| G31C C41G | 0.269 |
| G31A A56U | 0.482 |
| C30G C36U | 0.0443 |
| C30G C36A | 0.0554 |
| C30G C36G | 0.0594 |
| G31A U69G | 0.284 |
| G31A U69A | 0.564 |
| G31A U37A | 0.128 |
| G31A G74C | 0.182 |
| C30G C61U | 0.026 |
| C30A U79A | 0.386 |
| C30A U79G | 0.256 |
| G31A G50C | 0.521 |
| G31C C49G | 0.253 |
| G31C C49U | 0.339 |
| G31C A78G | 0.302 |
| C30G C57U | 0.0332 |
| G31C C33U | 0.123 |
| C30G A56C | 0.0415 |
| C30G A42G | 0.0415 |
| G31C A77G | 0.306 |
| G31C C61G | 0.259 |
| G31A G52A | 0.46 |

| Variant | self-cleavage |
| --- | --- |
| G31C A70U | 0.128 |
| G31A G34C | 0.0272 |
| G31A G34A | 0.0934 |
| C30G C75U | 0.0755 |
| C30G C75G | 0.0997 |
| G31A G38U | 0.0702 |
| G31A G38A | 0.14 |
| C30U G74U | 0.131 |
| C30G C63U | 0.0231 |
| C30G C63G | 0.0923 |
| C30U C36U | 0.244 |
| C30U A42G | 0.156 |
| C30U A42C | 0.0282 |
| G31A G35C | 0 |
| G31A G35U | 0.102 |
| C30G U79C | 0.0496 |
| C30G U79A | 0.156 |
| C30G C32A | 0.115 |
| C30G G67A | 0.0287 |
| C30G G67U | 0.112 |
| G31A C75G | 0.086 |
| G31A C75A | 0.136 |
| G31A A87U | 0.442 |
| C30G C48G | 0.119 |

| Variant | self-cleavage |
| --- | --- |
| C30G G73C | 0.0489 |
| C30G G73A | 0.0455 |
| C30U U69G | 0.554 |
| C30A U69C | 0.623 |
| C30U G31A | 0.168 |
| C30U C66U | 0.544 |
| C30U C49U | 0.891 |
| G31A G55C | 0.475 |
| C30G G54A | 0.0811 |
| C30G A43G | 0 |
| C30U C58U | 0.743 |
| G31A G81A | 0.14 |
| G31A G81U | 0.126 |
| C30G G82C | 0.0326 |
| C30U G82A | 0.229 |
| C30G C66U | 0.185 |
| C30G G31A | 0.133 |
| G31A A77C | 0.199 |
| G31A A77G | 0.339 |
| G31C C63A | 0.344 |
| G31C C63U | 0.369 |
| C30G A77U | 0.0665 |
| C30U G39A | 0.273 |
| C30U U46A | 0.369 |

| Variant | self-cleavage |
| --- | --- |
| C30U U46C | 0.0723 |
| C30U C75U | 0.157 |
| G31C C84U | 0.295 |
| C30U A43U | 0.0652 |
| C30G A45C | 0.0997 |
| C30G A45G | 0.0563 |
| C30G U60G | 0.0386 |
| G31A G68C | 0.518 |
| C30U C33G | 0.266 |
| G31C A51G | 0.341 |
| G31C A51C | 0.475 |
| G31C C48G | 0.227 |
| G31A C66G | 0.379 |
| G31A C66A | 0.546 |
| C30A U65C | 0.644 |
| C30A U65A | 0.341 |
| C30A U65G | 0.441 |
| C30U G76A | 0.862 |
| G31A G53A | 0.487 |
| C30U G68C | 0.575 |
| C30U G35C | 0.185 |
| C30G G38A | 0.14 |
| C30A U72G | 0.185 |
